The results in this text go back to article PMC10907714.

Some results are limits rather than exact numbers.

This assay addresses human EGFR-WT (human) (UniProt P00533).

Regarding “human recombinant Epiregulin (from UniProt O14944 63-108) (ligand)”, the potency of hEpiregulin against hEGF for recruitment of the seven SH2 biosensors to the plasma membrane (ebBRET, Fig. 2a), HEK293 cells with EGFR-WT, 10 min (fold less potent than hEGF) was above 100.
